Laboratory results reported in the DeepSol protein solubility set.

assay: soluble on expression in E. coli; label from the status in PepcDB or PDB records

| Sequence | soluble on expression in E. coli |
| --- | --- |
| GSVPATLPQLTPTLVSLLEVIEPEVLYAGYDSSVPDSTWRIMTTLNMLGGRQVIAAVKWAKAIPGFRNLHLDDQMTLLQYSWMYLMAFALGWRSYRQSSANLLCFAPDLIINEQRMTLPGMYDQCKHMLYVSSELHRLQVSYEEYLCMKTLLLLSSVPKDGLKSQELFDEIRMTYIKELGKAIVKREGNSSQNWQRFYQLTKLLDSMHEVVENLLNYCFQTFLDKTMSIEFPEMLAEIITNQIPKYSNGNIKKLLFHQK | soluble |
| AIAGSRQDPVPLSFVTLQEQRCVLSWFLGWNVAQKQRFLEDLISKAVPGKVSSLLDQLNTLQVNDRPPNIFECQLRLWTQWFDSWSEEERNAFLNCLEEKDPTFVAFFYDQVAGTAGRD | soluble |
| MKIKSNLKLRRIGNRHMIVEVSDSCVNLTNVYSLNGTAARLWEMVCNGEGRTAGELAEGLCKTYDVEYGRALRDVERQIEEWEKMGLLSRRGTGD | not soluble |
| MAHHHHHHMARTLLLNIQHHQPDLGLSEVDIELGMLAGLLHDVGHGPFSHLFEDVVSRRCGIEFNHEDMSEKIARRVLRDLVPQTHVDVVVGLMRGKALLGITYGEIISNKRNGIDVDRLDYFIRDSMCCFGKPTVDVRVNRLFNSARIVCEEGQWQLGFEQKLALSLREIFTLRAKLHKNVYQHQVTKAIGHMIGDVIHAAAPHFRVGGHTLVECAQDETLFLKLGDWILEAIEASEAPHLAEAHAILHRLRTRDIYRVAYSSALDITMRAPMAAVDWPAAILEHAHPSFPLNADDFIAEVVVINQGKGTEDPLESVLFFNPKKPSQPLTRLKPAEDLKHGSPLFTPLQFEERTLMVFERRPTNGAVQRACERLNADPKYAAFFTDSLPFYNTK | soluble |
| LFEMGLQRYLESGLRNESENLLVALVRGPAGLQLDDHRLSGAYQRPLSGHYFRMDLPQGHWRSRSLWDFELPQPGVGLHANLELGKTVQSLLMLTSEYRKFGKQISITVAQDYTPVRASFR | not soluble |
| MSDEDERHRKKMKRKTCTGDSKSPAKKKQKIKDKSEEKSHAVQKHDAIGGKADSTKTKVKLSGKDKDKGKISKSAHSTEWTENDKKSSSDGGKKQIKRNEKGQLLFKDHPEFTPNMTPKEVLQAGSFGGTYFRPIYSSITKKHYKDVWKELPEDWLDGLNIPEQVASSTYREKVNTYKVKCGGSLEMWESSGWIVPQDPYGWFQWYCRFYQGRRTEDDARQISRWSKCAGVKGRWRNNLITKVVRSGCAYDNVTVSPVVRQTLQHWGYKLTPEDYKQGAKRVKLK | not soluble |
| MSLAEKPIKLGVLEDQSGDFAVATIGKVHAIQLAADEINKAGGIMGRPLELVVYDTQSDNTRYQEFMRRVLQRDKADAVFAGFSSASREAYRPIVDQLNGLAFYNNQYEGGVCDGHMIVTGAVPEQQFSTLIPWMMEKYGKKVYTLAADYNFGQISAEWVRNIVKQHGGEMAGVEFIPLGVSQFSQSIQNIQKAKPDFVVTLLVGTAQASYYEQAASANVNLPMASSVNVGQGYEHKRFKPPSLKDMYVTTNYIEEIDSPQSKAFLAKFKAKFPNEPYVNQEAENSYLAVYLYKQMVERAKSTNRDEIRKVIAQGDVCMDAPEGKVCIDPKSQHMSHTIYLAHVNADHSIDFPKVWPDIKPYWLGEAGCDLTKKDPMAQYTPSNEGHHHHHH | soluble |
| MKDREIFAGLSTTVPFVLRLDGRSFHRFSKDRYKKPYDKVFSDAMVKTARALVTDSGLSPSFAYTFSDEISLYVPAPVFDCRVEKLASVSAAFAASAFTLYAGASEPLAFDARVIPIEEGLFPAYLSWRQAEAWRNHMNGYAQKILQDEGVSPTNAQKQLDGMNAAALHEFAFSRGVNLALTPAWERRGICIYRDVVMRDGYNPIKDEKVSVERTIAVIDEDVPLFKSPEGTAWVLSKIRLEHHHHHH | not soluble |
| SLVYDSNNNLIADLGAEKRESISSDSIPMKLVNAVTSIEDHRFFKHRGVDIYRIIGAAWSNLLHKSTQGGSTLDQQLIKLAYFSTKESDQTLKRKAQEVWLSLQMEKKYTKEEILTFYVNKVYMGNGNYGMRTAAKSYYGKDLKDLSIAQLATLAGIPQAPTQYDPYAQP | not soluble |
| MGSDKIHHHHHHMFSARLKAIAQPVLADIENHPFVRGIQAGAVPAAALMVYVEQDTCFLDAFAKVYAGALSKCTTKDQMRFFEEQIRYTLNDEAGAHQILCDIAGQKLSDHQHAKQRPITYLYNEHLFNALRTGDLIDLIAAMLPCPWTYTEISQQIVDGAAPDNPFLPWIEFYQPQPGQIDGSMVKTLFGMVDELAIGLSEERQHEIEQRFLRSCELEYEFWEQAYYQKDWKYKN | not soluble |
| MMIAAAIFTTCVDGNKFFYHREIKVLRHLKRFNKPALKSIKSEDGDVIDCVPITNQPAFDHHLLKNHTIQMRPSFYPVSDSTYTKREAKAVTQVWHKAGECPKNTVPIRRTKKEDLLRPKSIRSFGRKSHQSIPRTTTFDPTLGHQYALMGVRNGKFYGTEVAINLWKPYVQIPKEFSLAQTWVVSGNGSSLNTIEAGWQVYPELYDDNNPRFFVYWTRDGYRKTGCYNLLCSGFVQTSNRYTVGGSITTMSRYRGTQYDLSVLIWKDQKTGNWWLRVNEKDVIGYWPGSLFNSLGREATRVEWGGEIINSKTGGRHTTTDMGSGHFADEGFKKASYFRNLKIVDGTNTLREPQGLYFFADKHNCYNVKTGNGGTSWGAHFFYGGPGRNVKCP | soluble |
| IPAGELQIIDKIDAAFKVAATAAATAPADDKFTVFEAAFNKAIKETTGGAYDTYKCIPSLEAAVKQAYAATVAAAPQVKYAVFEAALTKAITAMSEVQKVSQ | soluble |
| MKRLIICNGNKLTVCTQAISSGGIVEKYTPIFSLTKESDNELTLELSGVARGYYIIPSELTSSQARAAHLITLLTRAEESQTTDMHKILNSFVSGKITSGSMFNFENDGSFKREPEEAYNLINKI | not soluble |
| GSHMNGGRPPHHPYDAKDVSEYSCRELHYTRFLTDGPCRSAKPVTELVCSGQCGPARLLPNAIGRVKWWRPNGPDFRCIPDRYRAQRVQLLCPGGAAPRSRKVRLVASCKCKR | soluble |
| MGSDKIHHHHHHMSDAMHTLLTASPLLDLHHPEIEALVARRDWLTLSPYDRIGAVYDFVRNEIAFGYNEGDELPASRVLADGIGQCNTKSTLLMALLRAVGIPCRFHGFTIDKPLQKGAITGLAYWLAPQRIIHSWVEVSLEGRWIALEGFILDAPYLASLQRRFPQARRFCGYGAATPDLSAPGVDWRGQDAYIQKEGIADDFGVFDSPDAFYARHGSNLSGVKRWLYERVIRHRMNRNVARVRASKW | not soluble |
| MGSDKIHHHHHHMDEFDYVRRKLIERILHLTEKQPVVRPLPGLTVGRRESPTEPSTYILPPSICIAVQGAKRVLIGEEYYVYDVENFLLNSFDVPVVAQVIEASKEKPYIGMTWEIDMEILMEIVVEQKLNTRPITSSRGTSLGKVTHQLLDAFRRMLELLDEPEHISALLPVIKKEIIYRLLVSEQGPRLIQIALSGKNDVITALNYLKEHFNESVNMKRLAEMVGMSVSTFYQNFKILTGMTPLQYQKKLRLCEARKLLMAGSDVTTAAYQVGYESLSQFSREYKRFFGVSPSQDAKKLKEEPYTRILY | not soluble |
| MGSDKIHHHHHHMSAALSCGTIHGVGLGPGAPDLLSVRSDRLVRGARHVAYFRKAGRPGQARRIVEGMLRPDVIEIPMEYPVTTEIPLSDPRYNDCLSAFYAECTQRLVMLAQAGEDVVVLCEGDPFFYGSFMHLHTRLAGTVPVAVVPGITGMAGAWNATGIPITWGDDVLTIAMATLPEDELVRRIRDTDALVVMKIGRNLPKLRRAVAAAGREDAAWLVEHAAMPGQRVTRLIEAETVTPYFSILLIHGQGRRP | not soluble |
| MRRRSNRQYVDLSYFRETADALLFDVETNSREFTNEINTVKEEKAKWDERTPQGYTAKPISFEGADIWCSWICTVPGPRGSPWEGGEYEVSVNFHKWPIIPPICEFKTPLHHPNVDLRGSIYLKMLEQEHWSSETSLKKLLREISNLLATPDLTQAANIEAWMEYENQRENYEAKARAYAWTVNPNAVGYMEVSENSGIQRETAKAKLAVQNGAMESDEDDDDLPIDIEN | not soluble |
| MGFIMLLRSRFLKVIHVRKQLSACSRFAIQTQTRCKSTDASEDEVKHFQELAPTWWDTDGSQRILHKMNLTRLDFVQRTVRNQVKIQNPEIFVPGFNYKEFLPEYVCDNIQREMQESIETNLDKRPEVSVLDVGCGGGILSESLARLKWVKNVQGIDLTRDCIMVAKEHAKKDPMLEGKINYECKALEDVTGQFDIITCMEMLEHVDMPSEILRHCWSRLNPEKGILFLSTINRDLISWFTTIFMGENVLKIVPKGTHHLSKYINSKEILAWFNDNYSGQFRLLDLKGTMYLPYQGWVEHDCSDVGNYFMAIQRLN | not soluble |
| MGSDKIHHHHHHMWQDILNIHPDCIEDFINFDKLPGQAASLIAFAGMSYLQTEYKIGKTGKGNICLNNENNSGHVHYLISTHAGEGKIKLGNNEYLVKPGSIVLLPAGTPFLYELSGEYWEMCWLLLHDCSEYKFVHQLHPSVYSSINAERLYQTMSLIREFQHGESIYQSDIILRLVEVLVYQIAQTLNMGQQLTKQQQKFHSLIRRVNKQLQLSWTVKQLAAEMHMSEPHFFRLCKKEMGMTPIKLLTHTRLEYACYLLRYTQYNLDQIADTVGYGDSASFAHRFKKDYGLSPGRWRKEQINNFQSNDIENGEKR | not soluble |
| MMSESNKQQAVNKLTEIVANFTAMISTRMPDDVVDKLKQLKDAETSSMGKIIYHTMFDNMQKAIDLNRPACQDTGEIMFFVKVGSRFPLLGELQSILKQAVEEATIKAPLRHNAVEIFDEVNTGKNTGSGVPWVTWDIVPDGDDAEIEVYMAGGGCTLPGRSKVLMPSEGYEGVVKFVFENISTLAVNACPPVLVGVGIATSVETAAVLSRKAILRPIGSRHPNPKAAELELRLEEGLNRLGIGPQGLTGNSSVMGVHIESAARHPSTIGVAVSTGCWAHRRGTLLVHADLTFENLSHTRSAL | not soluble |
| MSLSRCLPLGQNARVIIIPARLAHAASTQAAAATDDAPNFFQKLAHRFQGVPLKGEAHAPKSMFEDCNKEWSAPEPLPAIPKDFKEHPDRDLVNYPYPARPMYPPKSRLLMMPDSWFTPFQKVTGVSGPYLFFGGLFAFLVNKELWVFEEQGHMTVGWILFYLLVTRTAGYKIDQGLYNGYQERVNFFKGLIQEDLKEAVEFKKTSAKQTESLNSIKESYPTALKESMALQLEATYRKNVQSVATELKRRIDYLKETEESKARVEREQLLKLINSEVDKEFSDRSFKDKYLQNAIQQLKGLNVQL | not soluble |
| IDKAIRDGNVLGFRTEYYKTLSEKDDIDDETSSTGIDKKEALENPIRISEIVDFILKNYNRLTKRNEEFFEHNKIANINEVITSRNKLSENKVLTTLNGFNSILACSSINAAKIYYSEFKKQQQKFPQEEKLKIGLIYSYLPSEQ | not soluble |
| MGSDKIHHHHHHMIILDNHFHVDPINGLFLEAVKQFHRAGGTHLVVVYKSAHDYGFGGMKGEDFMRAMDFHVELVEIINKETPVKAYAVVGVHPAEFDYLARARGIEYAKREVMKALEHAQRLCLDGKAIGIGEVGRPHYPVPEEIWEASIEIMKYAMALAKEADCAVQLHTESFDEEKFRELGRYVREVGIKPYRVVKHFSPPLVKVAEEVGIFPSIIASRKNIEEAIKQGTRFLMETDYIDDKRRPGAVLGPKTVPRRTKELLQKGILTEDDVYRIHVENPEKVYGIEL | not soluble |
| MGSSHHHHHHSSGLVPRGSHMKWDYDLRCGEYTLNLNEKTLIMGILNVTPDSFSDGGSYNEVDAAVRHAKEMRDEGAHIIDIGGESTRPGFAKVSVEEEIKRVVPMIQAVSKEVKLPISIDTYKAEVAKQAIEAGAHIINDIWGAKAEPKIAEVAAHYDVPIILMHNRDNMNYRNLMADMIADLYDSIKIAKDAGVRDENIILDPGIGFAKTPEQNLEAMRNLEQLNVLGYPVLLGTSRKSFIGHVLDLPVEERLEGTGATVCLGIEKGCEFVRVHDVKEMSRMAKMMDAMIGKGVK | soluble |
